Numbering of substitutions follows the chain as printed. Names may count otherwise. “And” between values parts separate entries of the source, which are not always exact repeats. Equal values may be shown once.
B1: PG102 (I29L variant) (antibody, human IgG4, kappa, V domains shown)
VH: QVKLQESGPGLVKPSETLSITCTVSGFSLSRYSVYWIRQPPGKGPEWMGMMWGGGSTDYSTSLKSRLTISKDTSKSQVSLKMNSLRTDDTAMYYCVRTDGDYWGQGTTVTVSS
VL: ELQLTQSPLSLPVTLGQPASISCRSSQSLANSNGNTYLHWYLQRPGQSPRLLIYKVSNRFSGVPDRFSGSGSGTDFTLKISRVEAEDVGVYYCSQSTHVPWTFGGGTKLEIKR
notes: Human IgG4/kappa; also called 29L-37I
B2: ch5D12 (PG100) (antibody, V domains shown)
VH: QVKLEESGPGLVAPSQSLSITCTVSGFSLSRYSVYWVRQPPGKGLEWLGMMWGGGSTDYNSALKSRLSISKDTSKSQVFLKMNSLRTDDTAMYYCVRTDGDYWGQGTSVTVSS
VL: B1 VL with T14S, Q17D, P18Q, A30V, R44K, R50K, V88L, Y92F
notes: also called chimeric 5D12

Assays:
[1] = target: T1, Recombinant human CD40 extracellular domain fused to human IgG1-Fc domain (huCD40-Fc; R&D Systems 149-CD-50) (human, UniProt P25942 21-193); assay: SPR (Biacore 3000), immobilised huCD40-Fc, bivalent binding (1:2) model, kd1
T1 construct: extracellular domain; Bought reagent; also called human CD40-Fc; not shown: human IgG1-Fc domain
Protocol: (§1) The kinetics of ch5D12 (PG100) and PG102 (I29L variant) binding to human CD40 were compared by surface plasmon resonance at a constant temperature of 25.0° C., using a Biacore 3000 instrument. Recombinant human CD40 extracellular domain fused to human IgG1-Fc domain (huCD40-Fc; R&D Systems catalogue number 149-CD-50) was used as the target antigen in these experiments. HuCD40-Fc (1 µg/mL in 10 mM acetate buffer, pH 5.0) was coupled via the amine groups of Lys residues to carbodiimide-activated Biacore CM5 chips, resulting in an antigen immobilization level of 127.4 RU. For kinetic analyses, dilution series of ch5D12 (PG100) and PG102 (range 10.0 µg/mL to 0.313 µg/mL) were prepared in Biacore Running Buffer (HEPES-buffered saline containing EDTA and surfactant; HBS-EP). Kinetic analyses were performed at a flow rate of 30 µL/min. Samples were allowed to bind for 4 min and to dissociate for 5 min, at the same flow rate. The chip surface was then regenerated for 30 seconds using 30 mM NaOH and a baseline re-established in HBS-EP for 2.5 min before injection of the next sample. […]
(§2) BIAcore control software (Version 3.2) was used for data collection and BIAevaluation software (Version 4.1) was used for analysis of kinetic data. Binding parameters were calculated using two different models of molecular interaction: a bivalent analyte model and Langmuir 1:1 binding model.

[2] = target: T2, huCD40-muIg (Ancell, catalogue number 504-020) (human, UniProt P25942 21-193); assay: ELISA on coated human CD40-Fc; half-maximal binding concentration
T2 construct: also called CD40-Fc; human CD40-Fc; not shown: murine Ig part
Protocol: (§3) Plates were washed 3 times with 200 μL/well wash buffer (0.05% Tween-20 in PBS). Subsequently, plates were blocked with 200 μL/well blocking buffer (5% BSA Fraction V [Roche, catalogue number 735094] in wash buffer) and incubated for 1 h at 37° C. (humid environment). Plates were washed 3 times with wash buffer. Test antibodies (ch5D12 (PG100), PG102, and negative control chimaeric anti-huCD86 antibody chFUN-1) were diluted in the range 0-1200 ng/mL in blocking buffer and transferred to assay plates in a final volume of 100 μL/well, followed by incubation for 1 h at 37° C. (humid environment). Plates were washed 3 times with wash buffer followed by addition of 100 μl/well goat anti-human kappa-AP detection antibody (Southern Biotech Associates catalogue number 2060-0) diluted 1:1000 in blocking buffer. Plates were incubated for 1 h at 37° C. in a humid environment before washing 3 times with wash buffer and a further single wash with PBS.

human CD40 [3] = target: T3, human CD40 (human, UniProt P25942 21-277); assay: flow cytometry on JY cells; competitor 1 µg/mL PG102-PE; n=4
T3 construct: whole, on cells; also called huCD40; CD40 expressed on JY cells
Protocol: (§4) Competitive Inhibition of ch5D12 (PG100)-PE and PG102-PE Binding to JY Cells Expressing Human CD40 Using Unlabelled Anti-CD40 Antibody Materials and Methods JY cells (Epstein—Barr virus-transformed human B lymphoblastoid cell line) were grown in Iscove's Modified Dulbecco's Medium (IMDM) containing 10% heat-inactivated foetal calf serum (FCS), 2 mM L-glutamine and 50 μg/mL gentamycin in an air-humidified atmosphere containing 5% CO_2, at 37° C. Cells were harvested on the day of flow cytometric measurements.
(§5) Unlabelled ch5D12 (PG100) (Batch 4) and PG102 (Batch 2) antibodies were used in these experiments. Both antibodies were also used in PE-labelled form for direct determination of binding to JY cells by flow cytometry. Antibodies were custom-labelled with PE by AbD Serotec (Oxford, UK). For each FACS analysis the following protocol was used. JY cells were harvested from cell culture and counted. […] Cells were washed followed by flow cytometric analysis in which the MFI at every concentration was determined using a FACScan flow cyometer (Becton & Dickinson). Five thousand events/sample were measured and analyzed using CellQuest® software (Becton & Dickinson).

[4] = target: T1, Recombinant human CD40 extracellular …; assay: SPR (Biacore 3000), immobilised huCD40-Fc, Langmuir (1:1) model, kd
Protocol: as §1, §2

[5] = target: T1, Recombinant human CD40 extracellular …; assay: SPR (Biacore 3000), immobilised huCD40-Fc, bivalent binding (1:2) model, ka1
Protocol: as §1, §2

human CD40 [6] = target: T3, human CD40; assay: cell-based or functional assay
[7] = target: T1, Recombinant human CD40 extracellular …; assay: SPR (Biacore 3000), immobilised huCD40-Fc, Langmuir (1:1) model, ka
Protocol: as §1, §2

human CD40 [8] = target: T3, human CD40; assay: FACS on JY cells expressing CD40; 100 µl PER.C6 transient supernatant harvested after 48 h (antibody concentration not equalised), FITC anti-human IgG 1/100; in the same figure Mock Control Mean 11.25 / Median 8.74, FACS control (secondary only) Mean 10.18 / Median 8.74
Protocol: FIG. 8. FACS analysis using JY cells. PER.C6 cell supernatant of the transient expressed variants (Q5E, K13A, E16Q, T17S, I29L, 37V, P45L, M48L, STS60NSA, T68S, S79F, and T108S) of 5D12 was harvested after 48 h. As control also supernatant was harvested of cells transfected with either ch5D12 or D15D12 together with supernatant from mock (no plasmid) transfected cells. Binding of expressed antibodies was tested by FACS using JY cells together with anti-human FITC labelled secondary antibody (1/100 diluted). As FACS control JY cells were incubated with only the secondary FITC labelled antibody.
By FACS analysis the antigen specificity of the expressed antibodies was analyzed. JY cells are EBV transformed human B-cells, which express CD40. Briefly, 100,000 JY cells were incubated with 100 µl supernatant from the transient expression experiment at 4° C. for 20 minutes. To remove unbound antibody cells were washed with PBS containing 0.05% NaAzide and 1% BSA. As secondary antibody 1/100 diluted FITC labeled anti-human IgG (Jackson 109-095-127) was used. After 20 minutes incubation at 4° C. cells were washed. Finally cell samples were measured on a FACScan (BD).

human CD40 [9] = target: T3, human CD40; assay: flow cytometry competition on JY cells against 1 µg/mL PE-labelled ch5D12 (PG100) or PG102; range told of both antibodies
Protocol: as §4, §5

[10] = target: T1, Recombinant human CD40 extracellular …; assay: SPR (Biacore 3000), immobilised huCD40-Fc, Langmuir (1:1) model
Protocol: as §1, §2

human CD40 [11] = target: T3, human CD40; assay: flow cytometry on JY cells; competitor 1 µg/mL ch5D12 (PG100)-PE; n=4
Protocol: as §4, §5

[12] = target: T1, Recombinant human CD40 extracellular …; assay: SPR (Biacore 3000), immobilised huCD40-Fc, bivalent binding (1:2) model
Protocol: as §1, §2

[13] = target: T2, huCD40-muIg (Ancell, catalogue number …); assay: ELISA on coated human CD40-Fc (huCD40-muIg per methods); n=4
Protocol: as §3, with “Plates were incubated for 1 h at 37° C. in a humid environment before washing 3 times with wash buffer and a further single wash with PBS.” left out
PNP substrate was prepared by adding 1 tablet p-Nitrophenyl Phosphate tablets (Sigma, catalogue number N-2765) in 15 mL PNP substrate buffer (12.1 g Tris, 5.84 g NaCl, 1.02 g MgCl_2.6H_2O in 1 L H_2O (adjusted to pH 9.6 with HCl). PNP substrate was added to assay plates at 100 μL/well. Plates were incubated for several minutes (max 30 min) at 37° C. to allow colour development before the reaction was stopped by addition of 3M NaOH. Colour intensity was determined at 405 nm using a micro plate reader (Biorad, model 550).

[14] = target: T1, Recombinant human CD40 extracellular …; assay: SPR (Biacore 3000), immobilised huCD40-Fc, bivalent analyte model; the text value differs from the table's 5.29 × 10^-9 M; bivalent analyte model, not Langmuir
Protocol: as §1, §2

T3 sequence (P25942 21-277): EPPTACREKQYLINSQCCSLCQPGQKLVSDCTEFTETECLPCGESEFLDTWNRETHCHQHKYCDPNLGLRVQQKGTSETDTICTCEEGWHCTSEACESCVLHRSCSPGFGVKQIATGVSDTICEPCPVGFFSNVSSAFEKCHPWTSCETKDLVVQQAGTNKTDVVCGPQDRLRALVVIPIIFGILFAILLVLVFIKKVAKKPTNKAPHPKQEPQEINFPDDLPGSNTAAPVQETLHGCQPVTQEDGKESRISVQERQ
T1 sequence (P25942 21-193): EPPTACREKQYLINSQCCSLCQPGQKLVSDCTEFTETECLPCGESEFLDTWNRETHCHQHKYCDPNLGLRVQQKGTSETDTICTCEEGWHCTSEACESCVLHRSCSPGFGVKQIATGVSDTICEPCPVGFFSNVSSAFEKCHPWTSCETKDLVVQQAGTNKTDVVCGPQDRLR
T2 sequence (P25942 21-193): as above

| Binder | koff [1] | EC50 [2] | -log IC50 (human CD40 [3]) | koff [4] | kon [5] | -log IC50 for inhibition of IL-8 release by IFN-gamma-pulsed THP-1 cells co-cultured with Jurkat 39.8/50 cells (human CD40 [6]) | kon [7] | Mean (FL1-H) (human CD40 [8]) | Median (FL1-H) (human CD40 [8]) | IC50 (human CD40 [9]) | Kd [10] | -log IC50 (human CD40 [11]) | Kd [12] | -log half-maximal binding concentration [13] | Kd [14] |
| --- | --- | --- | --- | --- | --- | --- | --- | --- | --- | --- | --- | --- | --- | --- | --- |
| B1 | 0.00247 s⁻¹ | ~0.03 µg/mL | 7.65 -log10 of g/mL (per p-0205: ~20-30 ng/mL) | 0.000596 s⁻¹ | 782000 M⁻¹ s⁻¹ | 8.42 -log10 (unit not printed) | 2.51e+06 M⁻¹ s⁻¹ | 108 FL1-H | 91.8 FL1-H | 0.02 µg/mL to 0.03 µg/mL (2×) and 0.13 nM to 0.2 nM (2×) | 0.237 nM | 7.63 -log10 of g/mL (per p-0205: ~20-30 ng/mL) | 5.41 nM |  |  |
| B2 | 0.0016 s⁻¹ | ~0.03 µg/mL | 7.54 -log10 of g/mL (per p-0205: ~20-30 ng/mL) | 0.000507 s⁻¹ | 641000 M⁻¹ s⁻¹ | 8.28 -log10 (unit not printed) | 1.88e+06 M⁻¹ s⁻¹ |  |  | 0.02 µg/mL to 0.03 µg/mL (2×) and 0.13 nM to 0.2 nM (2×) | 0.271 nM | 7.5 -log10 of g/mL (per p-0205: ~20-30 ng/mL) | 5.29 nM | 7.54 -log10 of g/ml (per caption: 7.45 ~ 35 ng/ml) | 5.25 nM |
